Reference: patent US20260263609A1 (NEW YORK UNIVERSITY, published 2026)

Tests used:
NRAS [1] = biological target: T1, NRAS (human, UniProt P01111 1-174, limits assumed); experiment: BLI; biotinylated monobody on streptavidin tip, NRAS(WT)·GTPγS at 50, 25, 12.5 and 6.25 nM; global 1:1 fit
T1 construct: also called Neuroblastoma-RAS; NRAS (WT)

NRAS (K135R) = biological target: T2, NRAS (K135R) (human, UniProt P01111 1-174, limits assumed); experiment: BLI; sensorgrams at 100 nM and 25 nM with fit; nucleotide state not marked
T2 construct: also called NRAS mutant with the H/KRAS-mimicking mutation K135R

NRAS [2] = biological target: T1, NRAS; experiment: BLI; biotinylated monobody on streptavidin tip, NRAS(WT)·GDP at 50, 25, 12.5 and 6.25 nM; global 1:1 fit
NRAS [3] = biological target: T1, NRAS; experiment: BLI; biotinylated monobody on streptavidin tip, NRAS at 50, 25, 12.5 and 6.25 nM; global 1:1 fit; upper right panel, untitled on this sheet, NRAS(WT)·GTPγS by the layout of FIG. 2A
NRAS [4] = biological target: T1, NRAS; experiment: BLI; biotinylated monobody on streptavidin tip, NRAS at 50, 25, 12.5 and 6.25 nM; global 1:1 fit; upper left panel, untitled on this sheet, NRAS(WT)·GDP by the layout of FIG. 2A
NRAS [5] = biological target: T1, NRAS; experiment: as above; remark: listed apart in the source
NRAS [6] = biological target: T1, NRAS; experiment: BLI; biotinylated monobody on streptavidin tip, NRAS at 50, 25, 12.5 and 6.25 nM; global 1:1 fit; upper right panel, untitled on this sheet, NRAS(WT)·GTPγS by the layout of FIG. 2A; remark: listed apart in the source
NRAS [7] = biological target: T1, NRAS; experiment: yeast display, cells sorted for binding to NRAS (WT);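 note: Yeast-displayed monobody variants with one or two residue substitutions, monobody sequences read from cells recovered by sorting for binding to wild-type NRAS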

Binder | binding result (NRAS [7]) | also measured
Mb(NRAS_19) (designed binder) VSSVPTKLEVVAATPTSLLISWDAPAVTVDFYVITYGETGSYYPYAQEFKVPGSKSTATISGLSPGVDYTITVYAYQVIGAIWKYYSPISINYRT |  | Kd (NRAS [1]): 0.83 nM; Kd (NRAS (K135R)): 6.6 nM; Kd (NRAS [2]): 1.8 nM
Mb(NRAS_20) (designed binder) VSSVPTKLEVVAATPTSLLISWDAPAVTVDFYVITYGETGAYYPYAQEFKVPGSKSTATISGLSPGVDYTITVYAYQVIGAIWKYYSPISINYRT |  | Kd (NRAS [3]): 1.1 nM; Kd (NRAS [4]): 3.3 nM; Kd (NRAS (K135R)): 9.5 nM
Mb(NRAS_24) (designed binder) VSSVPTKLEVVAATPTSLLISWDAPAVTVDFYVITYGETGGYAWAYQEFKVPGSKSTATISGLSPGVDYTITVYAYQVIGAIWKYYSPISINYRT |  | Kd (NRAS [5]): 2.6 nM; Kd (NRAS (K135R)): 5.6 nM; Kd (NRAS [6]): 0.52 nM
Mb(NRAS_24) with the FG loop of SEQ ID NO: 53 (designed binder, length of the loop entry not visible) VSSVPTKLEVVAATPTSLLISWDAPAVTVDFYVITYGETGGYAWAYQEFKVPGSKSTATISGLSPGVDYTITVYAYQVILHIWKYYSPISINYRT | binds | 
Mb(NRAS_24) with the FG loop of SEQ ID NO: 54 (designed binder, length of the loop entry not visible) VSSVPTKLEVVAATPTSLLISWDAPAVTVDFYVITYGETGGYAWAYQEFKVPGSKSTATISGLSPGVDYTITVYAYQVIRHIWKYYSPISINYRT | binds | 
Mb(NRAS_24) with the FG loop of SEQ ID NO: 55 (designed binder, length of the loop entry not visible) VSSVPTKLEVVAATPTSLLISWDAPAVTVDFYVITYGETGGYAWAYQEFKVPGSKSTATISGLSPGVDYTITVYAYQVIRSIWKYYSPISINYRT | binds | 
Mb(NRAS_24) with the FG loop of SEQ ID NO: 56 (designed binder, length of the loop entry not visible) VSSVPTKLEVVAATPTSLLISWDAPAVTVDFYVITYGETGGYAWAYQEFKVPGSKSTATISGLSPGVDYTITVYAYQVIRYIWKYYSPISINYRT | binds | 
Mb(NRAS_24) with the FG loop of SEQ ID NO: 57 (designed binder, length of the loop entry not visible) VSSVPTKLEVVAATPTSLLISWDAPAVTVDFYVITYGETGGYAWAYQEFKVPGSKSTATISGLSPGVDYTITVYAYQVISHIWKYYSPISINYRT | binds | 
Mb(NRAS_24) with the FG loop of SEQ ID NO: 58 (designed binder, length of the loop entry not visible) VSSVPTKLEVVAATPTSLLISWDAPAVTVDFYVITYGETGGYAWAYQEFKVPGSKSTATISGLSPGVDYTITVYAYQVISSIWKYYSPISINYRT | binds | 
Mb(NRAS_24) with the FG loop of SEQ ID NO: 59 (designed binder, length of the loop entry not visible) VSSVPTKLEVVAATPTSLLISWDAPAVTVDFYVITYGETGGYAWAYQEFKVPGSKSTATISGLSPGVDYTITVYAYQVISYIWKYYSPISINYRT | binds | 
Mb(NRAS_24) with the FG loop of SEQ ID NO: 60 (designed binder, length of the loop entry not visible) VSSVPTKLEVVAATPTSLLISWDAPAVTVDFYVITYGETGGYAWAYQEFKVPGSKSTATISGLSPGVDYTITVYAYQVITHIWKYYSPISINYRT | binds | 
Mb(NRAS_24) with the FG loop of SEQ ID NO: 61 (designed binder, length of the loop entry not visible) VSSVPTKLEVVAATPTSLLISWDAPAVTVDFYVITYGETGGYAWAYQEFKVPGSKSTATISGLSPGVDYTITVYAYQVIYHIWKYYSPISINYRT | binds | 
Mb(NRAS_24) with the FG loop of SEQ ID NO: 62 (designed binder, length of the loop entry not visible) VSSVPTKLEVVAATPTSLLISWDAPAVTVDFYVITYGETGGYAWAYQEFKVPGSKSTATISGLSPGVDYTITVYAYQVIYYIWKYYSPISINYRT | binds | 
Mb(NRAS_24) with the FG loop of SEQ ID NO: 63 (designed binder, length of the loop entry not visible) VSSVPTKLEVVAATPTSLLISWDAPAVTVDFYVITYGETGGYAWAYQEFKVPGSKSTATISGLSPGVDYTITVYAYQVSGAIWKYYSPISINYRT | binds | 
Mb(NRAS_24) with the FG loop of SEQ ID NO: 64 (designed binder, length of the loop entry not visible) VSSVPTKLEVVAATPTSLLISWDAPAVTVDFYVITYGETGGYAWAYQEFKVPGSKSTATISGLSPGVDYTITVYAYQYEGAIWKYYSPISINYRT | binds | 
Mb(NRAS_24) with the FG loop of SEQ ID NO: 65 (designed binder, length of the loop entry not visible) VSSVPTKLEVVAATPTSLLISWDAPAVTVDFYVITYGETGGYAWAYQEFKVPGSKSTATISGLSPGVDYTITVYAYQYHGAIWKYYSPISINYRT | binds | 
Mb(NRAS_24) with the FG loop of SEQ ID NO: 66 (designed binder, length of the loop entry not visible) VSSVPTKLEVVAATPTSLLISWDAPAVTVDFYVITYGETGGYAWAYQEFKVPGSKSTATISGLSPGVDYTITVYAYQYVGAIWKYYSPISINYRT | binds | 
Mb(NRAS_24) with the FG loop of SEQ ID NO: 67 (designed binder, length of the loop entry not visible) VSSVPTKLEVVAATPTSLLISWDAPAVTVDFYVITYGETGGYAWAYQEFKVPGSKSTATISGLSPGVDYTITVYAYQYYGAIWKYYSPISINYRT | binds | 
